Three molecules from patent publication US20120316071A1 (published 2012) can be followed below.

Test [1] concerns the target T1, rHuman CD44/Fc Chimera, CF (human, UniProt P16070 21-220).
T1 construct: Bought from R&D Systems; Fc part of the bought chimera not given
The experiment in a line: ECL multispot (MSD) assay, antigen spotted on the plate, Fab in solution; blank spot of the same well 231.

Test [2] has as its target T2, rHuman IGF-1 sR, (IGF-1 sR), CF (human, UniProt P08069 31-932).
T2 construct: Bought from R&D Systems as a soluble receptor; also called insulin-like growth factor-1 soluble receptor
Described as above.

In test [3] the target is T3, rHuman P-Cadherin/Fc Chimera, CF (human, UniProt P22223 108-654).
T3 construct: Bought from R&D Systems; Fc part of the bought chimera not given
The description is as above.

The target of test [4] is T4, rHuman Erythropoietin R/Fc Chimera, CF (human, UniProt P19235 25-250).
T4 construct: Bought from R&D Systems; also called EPO R; EPO R/Fc; Fc part of the bought chimera not given
T4 sequence (looked up): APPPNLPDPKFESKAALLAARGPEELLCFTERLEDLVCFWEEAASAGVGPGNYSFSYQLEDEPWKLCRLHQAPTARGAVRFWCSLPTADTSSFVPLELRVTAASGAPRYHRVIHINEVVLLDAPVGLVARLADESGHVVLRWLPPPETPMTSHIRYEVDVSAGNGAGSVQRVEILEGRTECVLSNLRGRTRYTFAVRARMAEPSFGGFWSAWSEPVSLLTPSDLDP
Described as above.

Test [5] has as its target T5, Recombinant Human DLL4 (human, UniProt Q9NR61 27-524).
T5 construct: Bought from R&D Systems; also called delta-like protein 4; rHuman DLL4
The test is described as above.

The target in test [6] is T6, rHuman ErbB2/Fc Chimera, CF (human, UniProt P04626 23-652).
T6 construct: Bought from R&D Systems; also called human epidermal growth factor 2 receptor; Fc part of the bought chimera not given
The description is as above.

Test [7] deals with T7, rHuman EGF R/Fc Chimera, CF (human, UniProt P00533 25-645).
T7 construct: Bought from R&D Systems; also called epidermal growth factor receptor; Fc part of the bought chimera not given
The test is described as above.

Test [8] has as its target T8, rHuman HGF R/c-MET/Fc Chimera, CF (human, UniProt P08581 25-932).
T8 construct: Bought from R&D Systems; also called HGF R/Fc; hepatocyte growth factor receptor; Fc part of the bought chimera not given
Described as above.

The target of test [9] is T9, rHuman Notch-1/Fc Chimera, CF (human, UniProt P46531 19-526).
T9 construct: Bought from R&D Systems; Fc part of the bought chimera not given
The description is as above.

Test [10] addresses T10, rHuman CD44/Fc Chimera, CF (R&D Systems Cat#3660-CD) (human, UniProt P16070 21-220).
T10 construct: Bought recombinant protein; Fc part of the bought chimera not given
Briefly: MSD multispot ECL, antigen spotted on plate, Fab in solution; blank spot of this row 237.

Test [11] deals with T11, rHuman IGF-1 sR (insulin-like growth factor-1 soluble receptor), CF (R&D Systems Cat#391-GR) (human, UniProt P08069 31-932).
T11 construct: Bought recombinant soluble receptor; The column head prints only 'IGF-1'
The test is described as above.

In test [12] the target is T12, rHuman P-Cadherin/Fc Chimera, CF (R&D Systems Cat#861-PC) (human, UniProt P22223 108-654).
T12 construct: Bought recombinant protein; Fc part of the bought chimera not given
Described as above.

Test [13] addresses T13, rHuman Erythropoietin R/Fc Chimera, CF (R&D Systems Cat#963-ER) (human, UniProt P19235 25-250).
T13 construct: Bought recombinant protein; also called EPO R; Epo R/Fc; Fc part of the bought chimera not given
T13 sequence (looked up): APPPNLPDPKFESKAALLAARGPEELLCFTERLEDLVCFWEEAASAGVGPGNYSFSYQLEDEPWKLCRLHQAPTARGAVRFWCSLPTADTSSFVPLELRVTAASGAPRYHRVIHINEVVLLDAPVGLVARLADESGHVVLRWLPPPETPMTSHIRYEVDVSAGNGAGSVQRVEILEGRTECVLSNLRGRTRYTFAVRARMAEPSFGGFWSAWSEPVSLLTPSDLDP
Described as above.

Test [14] deals with T14, Recombinant Human DLL4 (R&D Systems Cat#1506-D4/CF) (human, UniProt Q9NR61 27-524).
T14 construct: Bought recombinant protein; also called delta-like protein 4; rHuman DLL4
The description is as above.

The target in test [15] is T15, rHuman ErbB2/Fc Chimera, CF (R&D Systems Cat#1129-ER) (human, UniProt P04626 23-652).
T15 construct: Bought recombinant protein; Fc part of the bought chimera not given
The description is as above.

The target in test [16] is T16, rHuman EGF R/Fc Chimera, CF (R&D Systems Cat#344-ER) (human, UniProt P00533 25-645).
T16 construct: Bought recombinant protein; Fc part of the bought chimera not given
The description is as above.

The target in test [17] is T17, rHuman HGF R/c-MET/Fc Chimera, CF (R&D Systems Cat#358-MT/CF) (human, UniProt P08581 25-932).
T17 construct: Bought recombinant protein; also called HGF R/Fc; Fc part of the bought chimera not given
The test is described as above.

In test [18] the target is T18, rHuman Notch-1/Fc Chimera, CF (R&D Systems Cat#3647-TK) (human, UniProt P46531 19-526).
T18 construct: Bought recombinant protein; Fc part of the bought chimera not given
The test is described as above.

Test [19] addresses T10, rHuman CD44/Fc Chimera, CF (R&D Systems …). Briefly: MSD multispot ECL, antigen spotted on plate, Fab in solution; blank spot of this row 258.
In test [20] the target is T11, rHuman IGF-1 sR (insulin-like growth …). The description is as above.
The target in test [21] is T12, rHuman P-Cadherin/Fc Chimera, CF (R&D …). Described as above.
Test [22] concerns the target T13, rHuman Erythropoietin R/Fc Chimera, CF …. The description is as above.
Test [23] deals with T14, Recombinant Human DLL4 (R&D Systems …). Described as above.
Test [24] deals with T15, rHuman ErbB2/Fc Chimera, CF (R&D …). The description is as above.
Test [25] concerns the target T16, rHuman EGF R/Fc Chimera, CF (R&D …). The description is as above.
Test [26] deals with T17, rHuman HGF R/c-MET/Fc Chimera, CF (R&D …). The test is described as above.
Test [27] addresses T18, rHuman Notch-1/Fc Chimera, CF (R&D …). The description is as above.

T17 sequence (P08581 25-932, change not shown): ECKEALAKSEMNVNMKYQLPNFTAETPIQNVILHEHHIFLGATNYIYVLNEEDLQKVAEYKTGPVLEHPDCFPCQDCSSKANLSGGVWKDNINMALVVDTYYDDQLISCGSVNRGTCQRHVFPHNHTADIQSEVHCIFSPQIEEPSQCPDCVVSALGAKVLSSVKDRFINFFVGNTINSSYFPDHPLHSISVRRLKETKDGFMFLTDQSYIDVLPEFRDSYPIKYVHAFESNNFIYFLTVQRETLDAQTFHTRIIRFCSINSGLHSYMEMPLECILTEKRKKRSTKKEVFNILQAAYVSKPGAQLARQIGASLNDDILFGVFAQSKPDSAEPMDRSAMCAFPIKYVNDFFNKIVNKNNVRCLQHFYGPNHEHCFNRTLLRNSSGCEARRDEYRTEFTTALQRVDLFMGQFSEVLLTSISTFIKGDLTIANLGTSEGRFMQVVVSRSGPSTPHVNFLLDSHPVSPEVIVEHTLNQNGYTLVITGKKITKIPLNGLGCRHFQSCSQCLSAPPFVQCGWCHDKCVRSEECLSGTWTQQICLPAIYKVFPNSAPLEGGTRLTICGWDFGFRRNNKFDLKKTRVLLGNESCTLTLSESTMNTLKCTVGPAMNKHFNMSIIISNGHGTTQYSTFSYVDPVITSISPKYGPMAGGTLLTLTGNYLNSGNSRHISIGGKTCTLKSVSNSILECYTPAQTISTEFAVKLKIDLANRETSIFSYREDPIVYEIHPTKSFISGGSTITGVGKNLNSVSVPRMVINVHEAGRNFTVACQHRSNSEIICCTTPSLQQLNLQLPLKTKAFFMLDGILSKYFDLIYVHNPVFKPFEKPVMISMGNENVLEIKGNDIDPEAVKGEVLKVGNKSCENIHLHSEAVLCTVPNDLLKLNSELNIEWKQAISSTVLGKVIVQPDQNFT
T8 sequence (P08581 25-932, change not shown): as above

B1: Fab VH1-46_IGHD6-6*01_IGHJ1*01 S102A/S103P/S104F/H111F (APFF) & L6_IGKJ1*01 S31G (Fab, V domains shown)
VH: QVQLVQSGAEVKKPGASVKVSCKASGYTFTSYYMHWVRQAPGQGLEWMGIINPSGGSTSYAQKFQGRVTMTRDTSTSTVYMELSSLRSEDTAVYYCAREEYAPFSAEYFQFWGQGTLVTVSS
VL: EIVLTQSPATLSLSPGERATLSCRASQSVSGYLAWYQQKPGQAPRLLIYDASNRATGIPARFSGSGSGTDFTLTISSLEPEDFAVYYCQQRSNWPPWTFGQGTKVEIKR
notes: Tested as an E. coli Fab; The heavy chain carries CH1 with His6 and Flag tags from plasmid A, the light chain a kappa CL from plasmid C; also called APFF / S31G; H:APFF & L6_IGKJ1*01 S31G
In the case of B1, the ECL signal in test [1] amounted to 381; in test [2] it was 301; in [3] it was 384; in test [4] it was 414; in test [5], 65500; in test [6], 311. The ECL signal worked out at 391 in [7], 378 in test [8] and 426 in test [9].

B2: Fab VH1-46_IGHD6-6*01_IGHJ1*01 S102A/S103P/S104F/H111F (H:APFF) & L6_IGKJ1*01 S76E (Fab, V domains shown)
VH: QVQLVQSGAEVKKPGASVKVSCKASGYTFTSYYMHWVRQAPGQGLEWMGIINPSGGSTSYAQKFQGRVTMTRDTSTSTVYMELSSLRSEDTAVYYCAREEYAPFSAEYFQFWGQGTLVTVSS
VL: EIVLTQSPATLSLSPGERATLSCRASQSVSSYLAWYQQKPGQAPRLLIYDASNRATGIPARFSGSGSGTDFTLTIESLEPEDFAVYYCQQRSNWPPWTFGQGTKVEIKR
notes: Fab expressed in E. coli from plasmid A (heavy chain CH1, His6 and Flag tags) and plasmid C (kappa CL)
Regarding B2, the ECL signal in test [10] is 439; in test [11], 336; in test [12] it was 338; in test [13] it was 440; in [14] it was 51600; in test [15] it was 277. For the same molecule, the ECL signal stood at 266 in [16], 228 in test [17] and 313 in test [18].

B3: Fab VH1-46_IGHD6-6*01_IGHJ1*01 S102A/S103P/S104F/H111F (H:APFF) & L6_IGKJ1*01 S76Q (Fab, V domains shown)
VH: QVQLVQSGAEVKKPGASVKVSCKASGYTFTSYYMHWVRQAPGQGLEWMGIINPSGGSTSYAQKFQGRVTMTRDTSTSTVYMELSSLRSEDTAVYYCAREEYAPFSAEYFQFWGQGTLVTVSS
VL: EIVLTQSPATLSLSPGERATLSCRASQSVSSYLAWYQQKPGQAPRLLIYDASNRATGIPARFSGSGSGTDFTLTIQSLEPEDFAVYYCQQRSNWPPWTFGQGTKVEIKR
notes: as for B2
With B3, the ECL signal in test [19] is 287; in test [20], 188; in test [21], 364; in test [22] it was 430; in test [23], 48300; in test [24] it was 264. In addition, the ECL signal in test [25] amounted to 324; in test [26], 386; in test [27] it was 255.
